This sample holds only a part of the variants without activity.
How the values were obtained:
[1] = test system: biotinyl-Ile-oxazolone; assay: self-aminoacylation, catalytic enhancement (BIO) (fold over background); higher = more active; k-Seq, kA / k0A0; sequences stand for … in GGGAAUGGAUCCACAUCUACGAAUUC…UUCACUGCAGACUUGACGAAGCUG
Outline: (§1)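 Mutagenized RNA pools with a 21-nt variable region (0.43 μM) were reacted with each biotinyl-aminoacyl-oxazolone at 2–1250 μM for 90 minutes at room temperature, in 50 μL HEPES/NaCl/KCl/MgCl2/CaCl2 buffer containing 5% acetonitrile at pH 6.9–7.0. RNA captured on streptavidin was quantified by triplicate qPCR and by Illumina sequencing. The fraction reacted for each sequence was fit to a pseudo-first-order model with bootstrapping, and catalytic enhancement is the median kA divided by the uncatalyzed rate, taken as the low-activity peak of a bimodal Gaussian fit.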

[2] = test system: biotinyl-Val-oxazolone; assay: self-aminoacylation, catalytic enhancement (BVO) (fold over background); higher = more active; k-Seq, kA / k0A0; sequences stand for … in GGGAAUGGAUCCACAUCUACGAAUUC…UUCACUGCAGACUUGACGAAGCUG
Outline: as §1

[3] = test system: biotinyl-Phe-oxazolone; assay: self-aminoacylation, catalytic enhancement (BFO) (fold over background); higher = more active; k-Seq, kA / k0A0; sequences stand for … in GGGAAUGGAUCCACAUCUACGAAUUC…UUCACUGCAGACUUGACGAAGCUG
Outline: as §1

[4] = test system: biotinyl-Met-oxazolone; assay: self-aminoacylation, catalytic enhancement (BMO) (fold over background); higher = more active; k-Seq, kA / k0A0; sequences stand for … in GGGAAUGGAUCCACAUCUACGAAUUC…UUCACUGCAGACUUGACGAAGCUG
Outline: as §1

[5] = test system: biotinyl-Leu-oxazolone; assay: self-aminoacylation, catalytic enhancement (BLO) (fold over background); higher = more active; k-Seq, kA / k0A0; sequences stand for … in GGGAAUGGAUCCACAUCUACGAAUUC…UUCACUGCAGACUUGACGAAGCUG
Outline: as §1

[6] = test system: biotinyl-Trp-oxazolone; assay: self-aminoacylation, catalytic enhancement (BWO) (fold over background); higher = more active; k-Seq, kA / k0A0; sequences stand for … in GGGAAUGGAUCCACAUCUACGAAUUC…UUCACUGCAGACUUGACGAAGCUG
Outline: as §1

Row | Sequence | self-aminoacylation [1] | self-aminoacylation [2] | self-aminoacylation [3] | self-aminoacylation [4] | self-aminoacylation [5] | self-aminoacylation [6]
1 | CUUCACCUAGGUCCUCGGGUG [Fam2.2 aminoacylation ribozyme variant] | 3.4 | 4.26 | 34.1 | 6.74 | 7.45 | 6.69
2 | CUUCACCUGGGUCAUCGGGUG [Fam2.2 aminoacylation ribozyme variant] | 2.43 | 5 | 25 | 4.02 | 4.82 | 4.89
3 | CUUCACUUAGGUCAUCGGGUG [Fam2.2 aminoacylation ribozyme variant] | 2.82 | 2.8 | 23.4 | 4.3 | 5.55 | 5.12
4 | CUUCUACAAACAAUCGGUCUG [Fam1A.1 aminoacylation ribozyme variant] | 0.694 | 0.831 | 0.956 | 0.763 | 0.623 | 0.564
5 | CUUCUGCAAACAAUCGGUCUG [Fam1A.1 aminoacylation ribozyme variant] | 0.957 | 0.889 | 1.52 | 0.85 | 0.795 | 0.919
6 | CUUCUUCAAACAAGCGGUCUG [Fam1A.1 aminoacylation ribozyme variant] | 1.09 | 0.958 | 0.813 | 0.925 | 1.04 | 0.713
7 | CUUCUUCAAACAAUCCGUCUG [Fam1A.1 aminoacylation ribozyme variant] | 0.85 | 0.901 | 1.17 | 0.623 | 0.923 | 0.964
8 | CUUCUUCAAACAAUCGGUAUG [Fam1A.1 aminoacylation ribozyme variant] | 0.784 | 0.66 | 9.62 | 0.647 | 0.779 | 4.71
9 | CUUCUUCAAACAAUCGGUCAG [Fam1A.1 aminoacylation ribozyme variant] | 0.818 | 0.734 | 5.5 | 0.655 | 0.623 | 2.59
10 | CUUCUUCAAACAAUCGGUCUG [Fam1A.1 aminoacylation ribozyme variant] | 0.898 | 0.902 | 35.5 | 0.996 | 1.41 | 17.6
11 | CUUCUUCAAACAGUCGGUCUG [Fam1A.1 aminoacylation ribozyme variant] | 0.697 | 0.771 | 0.711 | 0.821 | 0.803 | 0.848
12 | CUUCUUCAAGCAAUCGGUCUG [Fam1A.1 aminoacylation ribozyme variant] | 0.745 | 0.944 | 3.14 | 0.909 | 0.978 | 2.18
13 | CUUCUUCACACAAUCGGUCUG [Fam1A.1 aminoacylation ribozyme variant] | 0.714 | 0.782 | 0.889 | 0.749 | 0.775 | 0.81
14 | CUUCUUCAGACAAUCGGUCUG [Fam1A.1 aminoacylation ribozyme variant] | 0.76 | 0.751 | 0.958 | 0.651 | 0.606 | 0.559
15 | GAGAUUGCUAAUAGUCGCAAG [Fam3.1 aminoacylation ribozyme variant] | 1.88 | 1.98 | 1.8 | 1.67 | 1.52 | 2.94
16 | GAGUAUGCUAAUAGUCGCAAG [Fam3.1 aminoacylation ribozyme variant] | 1.91 | 1.61 | 6.5 | 1.49 | 1.45 | 4.13
17 | GAGUUUGCUAACAGUCGCAAG [Fam3.1 aminoacylation ribozyme variant] | 1.4 | 1.41 | 10.7 | 1.62 | 1.3 | 5.6
18 | GAGUUUGCUAAUAGGCGCAAG [Fam3.1 aminoacylation ribozyme variant] | 0.982 | 0.836 | 1.4 | 0.961 | 1.02 | 1.35
19 | GAGUUUGCUAAUAGUCACAAG [Fam3.1 aminoacylation ribozyme variant] | 1.84 | 1.48 | 11.7 | 1.62 | 1.36 | 4.25
20 | GAGUUUGCUAAUAGUCGGAAG [Fam3.1 aminoacylation ribozyme variant] | 1.38 | 1.38 | 11.6 | 1.6 | 1.16 | 4.68
21 | GCACACCUCAAGCAAUCGGUC [Fam1B.1 aminoacylation ribozyme variant] | 1.4 | 1.73 | 2.09 | 1.3 | 1.23 | 2.46
22 | GCACACUUCAAGCAAUCGGCC [Fam1B.1 aminoacylation ribozyme variant] | 3.36 | 3.45 | 4.88 | 2.99 | 3.49 | 6.96
23 | GCACACUUCAAGCACUCGGUC [Fam1B.1 aminoacylation ribozyme variant] | 2.02 | 2.25 | 4.05 | 2.44 | 1.94 | 3.42
24 | GCACACUUCAAUCAAUCGGUC [Fam1B.1 aminoacylation ribozyme variant] | 1.73 | 1.69 | 34.4 | 1.58 | 1.98 | 26.4
25 | GCACACUUCACGCAAUCGGUC [Fam1B.1 aminoacylation ribozyme variant] | 2.5 | 2.22 | 10.1 | 2 | 1.93 | 3.02
26 | GCACACUUCAGGCAAUCGGUC [Fam1B.1 aminoacylation ribozyme variant] | 2.21 | 2.42 | 3.06 | 2.04 | 1.67 | 2.39

Row | Sequence | self-aminoacylation [1] | self-aminoacylation [2] | self-aminoacylation [3] | self-aminoacylation [4] | self-aminoacylation [5] | self-aminoacylation [6]
27 | GCACCCUUCAAGCAAUCGGUC [Fam1B.1 aminoacylation ribozyme variant] | 1.32 | 1.47 | 4.04 | 1.22 | 1.45 | 4.63
28 | GCGCACUUCAAGCAAUCGGUC [Fam1B.1 aminoacylation ribozyme variant] | 2.12 | 2.2 | 41.1 | 2.04 | 2.65 | 29.6
29 | GCGUUUGCUAAUAGUCGCAAG [Fam3.1 aminoacylation ribozyme variant] | 2.09 | 2.05 | 4.9 | 2.34 | 2.65 | 4.24
30 | GGACACUUCAAGCAAUCGGUC [Fam1B.1 aminoacylation ribozyme variant] | 2.38 | 2.29 | 26.7 | 2.13 | 2.4 | 22.5
31 | GUACACCUAGGUCAUCGGGUG [Fam2.2 aminoacylation ribozyme variant] | 2.54 | 2.53 | 18.5 | 2.32 | 2.69 | 4.08
32 | GUACUUCAAACAAUCGGUGUG [Fam1A.1 aminoacylation ribozyme variant] | 2.12 | 1.97 | 10.4 | 2.77 | 3.35 | 10.2
33 | GUACUUCAAACACUCGGUCUG [Fam1A.1 aminoacylation ribozyme variant] | 1.5 | 1.3 | 5.9 | 1.31 | 1.64 | 1.91
34 | GUACUUCAAACCAUCGGUCUG [Fam1A.1 aminoacylation ribozyme variant] | 1.22 | 1.18 | 2.13 | 1.13 | 0.918 | 1.31
35 | GUAUUUCAAACAAUCGGUCUG [Fam1A.1 aminoacylation ribozyme variant] | 1.1 | 1.04 | 2.64 | 1.09 | 1.02 | 2.34
36 | GUCACCCUGGUCAUCGAGUGA [Fam2.1 aminoacylation ribozyme variant] | 5.2 | 5.25 | 45.7 | 7.39 | 7.9 | 10.6
37 | GUCCUUCAAACAAUCGGUCUG [Fam1A.1 aminoacylation ribozyme variant] | 1.31 | 1.52 | 11.9 | 1.35 | 1.49 | 11
38 | GUUACACUGGUCAUCGAGUGA [Fam2.1 aminoacylation ribozyme variant] | 4.91 | 4.18 | 28.9 | 6.79 | 6.76 | 8.81
39 | GUUACCCCGGUCAUCGAGUGA [Fam2.1 aminoacylation ribozyme variant] | 3.82 | 3.38 | 45.8 | 6.95 | 7.66 | 8.27
40 | GUUACCCUAGUCAUCGAGUGA [Fam2.1 aminoacylation ribozyme variant] | 3.81 | 3.33 | 28.1 | 6.66 | 6.93 | 7.77
41 | GUUACCCUCGUCAUCGAGUGA [Fam2.1 aminoacylation ribozyme variant] | 2.45 | 2.31 | 11 | 4.14 | 3.7 | 4.33
42 | GUUACCCUGGGCAUCGAGUGA [Fam2.1 aminoacylation ribozyme variant] | 4.53 | 4.16 | 68.6 | 8.99 | 8.7 | 10.1
43 | GUUACCCUGGUCAUCGAGCGA [Fam2.1 aminoacylation ribozyme variant] | 2.84 | 3.46 | 5.54 | 4.51 | 4.14 | 4.27
44 | GUUACCCUGGUCAUCGAGUGG [Fam2.1 aminoacylation ribozyme variant] | 15 | 17.4 | 402 | 57.2 | 58.4 | 50
45 | GUUACCCUGGUCAUCUAGUGA [Fam2.1 aminoacylation ribozyme variant] | 5.9 | 6.05 | 78.6 | 12 | 11.7 | 13.4
46 | GUUACCCUGGUCAUUGAGUGA [Fam2.1 aminoacylation ribozyme variant] | 4.72 | 5.29 | 71.3 | 10.2 | 11 | 13
47 | GUUAGCCUGGUCAUCGAGUGA [Fam2.1 aminoacylation ribozyme variant] | 5.11 | 5.04 | 51.9 | 6.67 | 7.66 | 8.56
48 | GUUCACCCAGGUCAUCGGGUG [Fam2.2 aminoacylation ribozyme variant] | 3.12 | 3.64 | 29.1 | 3.77 | 5.02 | 3.77
49 | GUUCACCUAGCUCAUCGGGUG [Fam2.2 aminoacylation ribozyme variant] | 1.55 | 1.91 | 1.08 | 1.64 | 2.06 | 2.86
50 | GUUCACCUAGGCCAUCGGGUG [Fam2.2 aminoacylation ribozyme variant] | 3.17 | 3.86 | 25.4 | 3.77 | 3.61 | 3.64
51 | GUUCACCUAGGUCAUCGGAUG [Fam2.2 aminoacylation ribozyme variant] | 0.815 | 0.979 | 0.879 | 0.701 | 0.728 | 0.5

Source: the supplement of paper PMC9233669
